{"source": "paper PMC4263437", "system": "O=C(Cc1cccs1)N[C@@H]1C(=O)N2C(C(=O)O)=C(/C=C/c3ccc([N+](=O)[O-])cc3[N+](=O)[O-])CS[C@H]12", "assay": "purified protein", "assay_type": "biochemical, Acinetobacter baumannii", "data": [{"substance": "ADC-7 β-lactamase (Acinetobacter-derived cephalosporinase) (Acinetobacter baumannii)", "values": [{"measurement": "Km", "value": 21.2, "unit": "µM"}]}]}
